For twelve molecules, Kd, koff and kon results are on record in patent US20240209076A1 (KODIAK SCIENCES, published 2024).

Sequences and labels used below:
B1: Anti-IL-6 antibody, heavy chain S35H, G66D / light chain M32L, M50D, N52S, M88Q (antibody, IgG1, V domains shown)
VH: EVQLVESGGGLVQPGGSLRLSCAASGFTFSPFAMHWVRQAPGKGLEWVAKISPGGSWTYYSDTVTDRFTFSLDTSKSTAYLQMNSLRAEDTAVYYCARQLWGYYALDIWGQGTLVTVSS
VL: DIQLTQSPSSLSASVGDRVTITCSASISVSYLYWYQQKPGKAPKLLIYDDSSLASGVPSRFSGSGSGTDFTLTISSLQPEDFATYYCQQWSGYPYTFGQGTKVEIK
notes: IgG1; variable domains only; VL is variant III
B2: Anti-IL-6 antibody, heavy chain S35H, G66D, L100A / light chain M32L, M50D, N52S, M88Q (antibody, IgG1, V domains shown)
VH: B1 VH with L100A
VL: B1 VL
notes: as for B1
B3: Anti-IL-6 antibody, heavy chain S35H, G66D, L100Q / light chain M32L, M50D, N52S, M88Q (antibody, IgG1, V domains shown)
VH: B1 VH with L100Q
VL: B1 VL
notes: as for B1
B4: Anti-IL-6 antibody, heavy chain S35H, G66D, L100S / light chain M32L, M50D, N52S, M88Q (antibody, IgG1, V domains shown)
VH: B1 VH with L100S
VL: B1 VL
notes: as for B1
B5: Anti-IL-6 antibody, heavy chain S35H, G66D, L100G / light chain M32L, M50D, N52S, M88Q (antibody, IgG1, V domains shown)
VH: B1 VH with L100G
VL: B1 VL
notes: as for B1
B6: Anti-IL-6 antibody, heavy chain S35H, G66D, L100K / light chain M32L, M50D, N52S, M88Q (antibody, IgG1, V domains shown)
VH: B1 VH with L100K
VL: B1 VL
notes: as for B1
B7: dual inhibitor molecule G (AntiIL-6-VEGF Trap) (other)
heavy: EVQLVESGGGLVQPGGSLRLSCAASGFTFSPFAISWVRQAPGKGLEWVAKISPGGSWTYYSDTVTDRFTFSLDTSKSTAYLQMNSLRAEDTAVYYCARQLWGYYALDVWGQGTLVTVSSASTKGPSVFPLAPSSKSTSGGTAALGCLVKDYFPEPVTVSWNSGALTSGVHTFPAVLQSSGLYSLSSVVTVPSSSLGTQTYICNVNHKPSNTKVDKKVEPKSCGGGGSGGGGSSDTGRPFVEMYSEIPEIIHMTEGRELVIPCRVTSPNITVTLKKFPLDTLIPDGKRIIWDSRKGFIISNATYKEIGLLTCEATVNGHLYKTNYLTHRQTNTIIDVVLSPSHGIELSVGEKLVLNCTARTELNVGIDFNWEYPSSKHQHKKLVNRDLKTQSGSEMKKFLSTLTIDGVTRSDQGLYTCAASSGLMTKKNSTFVRVHEKDKTHTCPPCPAPEAAGAPSVFLFPPKPKDTLMISRTPEVTCVVVDVSHEDPEVKFNWYVDGVEVHNAKTKPREEQYNSTYRVVSVLTVLHQDWLNGKEYKCKVSNKALPAPIEKTISKAKGQPREPQVYTLPPSREEMTKNQVSLTCLVKGFYPSDIAVEWESNGQPENNYKTTPPVLDSDGSFFLYSKLTVDKSRWQQGNVFSCSVMHEALHNHYTQKSLSCSPGK
light: DIQLTQSPSSLSASVGDRVTITCSASISVSYLYWYQQKPGKAPKLLIYDDSSLASGVPSRFSGSGSGTDFTLTISSLQPEDFATYYCQQWSGYPYTFGQGTKVEIKRTVAAPSVFIFPPSDEQLKSGTASVVCLLNNFYPREAKVQWKVDNALQSGNSQESVTEQDSKDSTYSLSSTLTLSKADYEKHKVYACEVTHQGLSSPVTKSFNRGEC
notes: Trap-antibody fusion, VEGF trap between the Fab region (VH variant I) and the Fc; light chain variant III
B8: dual inhibitor molecule L (AntiIL-6-VEGF Trap) (other)
heavy: EVQLVESGGGLVQPGGSLRLSCAASGFTFSPFAWSWVRQAPGKGLEWVAKISPGGSWTYYSDTVTDRFTFSLDTSKSTAYLQMNSLRAEDTAVYYCARQLWGYYALDVWGQGTLVTVSSASTKGPSVFPLAPSSKSTSGGTAALGCLVKDYFPEPVTVSWNSGALTSGVHTFPAVLQSSGLYSLSSVVTVPSSSLGTQTYICNVNHKPSNTKVDKKVEPKSCGGGGSGGGGSSDTGRPFVEMYSEIPEIIHMTEGRELVIPCRVTSPNITVTLKKFPLDTLIPDGKRIIWDSRKGFIISNATYKEIGLLTCEATVNGHLYKTNYLTHRQTNTIIDVVLSPSHGIELSVGEKLVLNCTARTELNVGIDFNWEYPSSKHQHKKLVNRDLKTQSGSEMKKFLSTLTIDGVTRSDQGLYTCAASSGLMTKKNSTFVRVHEKDKTHTCPPCPAPEAAGAPSVFLFPPKPKDTLMISRTPEVTCVVVDVSHEDPEVKFNWYVDGVEVHNAKTKPREEQYNSTYRVVSVLTVLHQDWLNGKEYKCKVSNKALPAPIEKTISKAKGQPREPQVYTLPPSREEMTKNQVSLTCLVKGFYPSDIAVEWESNGQPENNYKTTPPVLDSDGSFFLYSKLTVDKSRWQQGNVFSCSVMHEALHNHYTQKSLSCSPGKPGK
light: B7 light with S52N
notes: Trap-antibody fusion, VEGF trap between the Fab region (VH variant II) and the Fc; light chain variant V
B9: dual inhibitor molecule K (AntiIL-6-VEGF Trap) (other)
heavy: B7 heavy with I34W
light: B7 light with D50A
notes: Trap-antibody fusion, VEGF trap between the Fab region (VH variant II) and the Fc; light chain variant IV
B10: dual inhibitor molecule I (AntiIL-6-VEGF Trap) (other)
heavy: B7 heavy
light: B7 light with S52N
notes: Trap-antibody fusion, VEGF trap between the Fab region (VH variant I) and the Fc; light chain variant V
B11: dual inhibitor molecule J (AntiIL-6-VEGF Trap) (other)
heavy: B7 heavy with I34W
light: B7 light
notes: Trap-antibody fusion, VEGF trap between the Fab region (VH variant II) and the Fc; light chain variant III
B12: dual inhibitor molecule H (AntiIL-6-VEGF Trap) (other)
heavy: B7 heavy
light: B7 light with D50A
notes: Trap-antibody fusion, VEGF trap between the Fab region (VH variant I) and the Fc; light chain variant IV

Usually Kd stands for the constant that tells how readily two partners part at equilibrium. As usually defined, the koff is the first-order rate constant of dissociation. In general, kon refers to a measure of how fast the partners come together.

Positions count from the first letter of the chain named. Names and notes keep the numbering of the source.

T2 sequence (P05231 30-212 limits assumed): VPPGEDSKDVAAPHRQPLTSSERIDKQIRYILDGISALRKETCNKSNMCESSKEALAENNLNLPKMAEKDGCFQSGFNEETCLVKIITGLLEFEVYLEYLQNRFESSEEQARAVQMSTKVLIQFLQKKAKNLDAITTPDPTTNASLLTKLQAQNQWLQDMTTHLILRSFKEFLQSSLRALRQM
T1 sequence (P05231 30-212 limits assumed): as above

One assay has as its target T1, human IL-6 (human, UniProt P05231 30-212). The assay is described as follows: SPR Biacore, purified, Protein A capture, 37 C. Here is the method: Antibodies were captured on a Protein A chip (GE) by injecting 1:20 cell supernatant dilutions at 10 μL/min for 60 seconds. […] The sensor chip was regenerated by a 60 seconds injection of 10 mM Glycine pH 1.7 at the flow rate of 50 μL/min. […] For this setup, 1 μg/mL of purified antibody was injected over a Protein A chip at 10 μL/min for 25 seconds. […] The sensor chip was regenerated by a 60 seconds injection of 10 mM Glycine pH 1.7 at flow rate of 50 μL/min. Data analysis for supernatant and purified samples were performed using BIAevaluation software (GE). All sensorgrams were double reference subtracted and fit using a 1:1 Langmuir binding model.
Take B1: the Kd stood at 0.195 nM, the koff was found to be 0.000238 s⁻¹ and the kon stood at 1.22e+06 M⁻¹ s⁻¹.
The like results for B2 were, in that order, 0.109 nM, 0.000406 s⁻¹ and 3.72e+06 M⁻¹ s⁻¹.
On the same counts, the results for B3 are 0.149 nM, 0.000336 s⁻¹ and 2.26e+06 M⁻¹ s⁻¹.
The like results for B4 were, in that order, 0.117 nM, 0.000424 s⁻¹ and 3.61e+06 M⁻¹ s⁻¹.
The molecule B5 had a Kd of 0.251 nM, a koff of 0.000694 s⁻¹ and a kon of 2.76e+06 M⁻¹ s⁻¹.
The like results for B6 were, in that order, 0.188 nM, 0.000279 s⁻¹ and 1.49e+06 M⁻¹ s⁻¹.

In the next assay the target is T1, human IL-6. The assay is described as follows: SPR Biacore, supernatant, Protein A capture, 37 C. A digest of the protocol:
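Antibodies from 1:20-diluted culture supernatant in HBS-EP+ were captured on a Protein A chip at 37 C, with 10 mM glycine pH 1.7 regeneration. Sensorgrams were double-reference subtracted and fitted to a 1:1 Langmuir model.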
(SPR reads the build-up and loss of mass on a sensor chip optically.)
In turn, B1 had a Kd of 0.403 nM, a koff of 0.000607 s⁻¹ and a kon of 1.5e+06 M⁻¹ s⁻¹.
The molecule B2 gave a Kd of 0.0834 nM, a koff of 0.00486 s⁻¹ and a kon of 5.82e+07 M⁻¹ s⁻¹.
The like results for B3 were, in that order, 0.148 nM, 0.000734 s⁻¹ and 4.97e+06 M⁻¹ s⁻¹.
On the same counts, the results for B4 are 0.114 nM, 0.000913 s⁻¹ and 8.03e+06 M⁻¹ s⁻¹.
B5 returned a Kd of 0.233 nM, an off-rate constant (koff) of 0.0016 s⁻¹ and a kon of 6.87e+06 M⁻¹ s⁻¹.
Molecule B6 came in with a Kd of 0.191 nM, a koff of 0.000822 s⁻¹ and a kon of 4.29e+06 M⁻¹ s⁻¹.

A further assay has as its target T2, recombinant human IL-6 (human, UniProt P05231 30-212).
T2 construct: Bought protein
The assay is described as follows: SPR Biacore, supernatant dual inhibitor on Protein A chip, IL-6 analyte, 25 C.
As to B7, the Kd came to 0.589 nM, the off-rate constant (koff) turned out to be 0.000149 s⁻¹ and the kon was determined as 252000 M⁻¹ s⁻¹.
The like results for B8 were, in that order, 0.239 nM, 0.000169 s⁻¹ and 705000 M⁻¹ s⁻¹.
For B9, the Kd is 0.282 nM, the koff was determined as 0.000178 s⁻¹ and the on-rate constant (kon) amounted to 629000 M⁻¹ s⁻¹.
As for B10, the Kd was determined as 0.679 nM, the koff came out at 0.000147 s⁻¹ and the on-rate (kon) stood at 217000 M⁻¹ s⁻¹.
On the same counts, the results for B11 are 0.28 nM, 0.000149 s⁻¹ and 534000 M⁻¹ s⁻¹.
The like results for B12 were, in that order, 0.356 nM, 0.000162 s⁻¹ and 454000 M⁻¹ s⁻¹.

The next assay concerns the target T2, recombinant human IL-6. The assay is described as follows: SPR Biacore, purified dual inhibitor on Protein A chip, IL-6 analyte, 37 C.
As for B7, the dissociation constant (Kd) was found to be 0.451 nM, the koff was 0.000567 s⁻¹ and the kon turned out to be 1.26e+06 M⁻¹ s⁻¹.
The like results for B8 were, in that order, 0.436 nM, 0.00065 s⁻¹ and 1.49e+06 M⁻¹ s⁻¹.
The like results for B9 were, in that order, 0.452 nM, 0.000579 s⁻¹ and 1.28e+06 M⁻¹ s⁻¹.
The like results for B10 were, in that order, 0.435 nM, 0.000499 s⁻¹ and 1.15e+06 M⁻¹ s⁻¹.
As for B11, the Kd was 0.468 nM, the koff was determined as 0.000664 s⁻¹ and the kon amounted to 1.42e+06 M⁻¹ s⁻¹.
On the same counts, the results for B12 are 0.396 nM, 0.000529 s⁻¹ and 1.34e+06 M⁻¹ s⁻¹.
